Assay results as given in the supplement of paper PMC12042874.
± gives the uncertainty stated by the source.

Assay: amyloid nucleation score (Sup35N fusion, yeast selection) (log enrichment); library NNK2; higher = more nucleation; inactive = no reads after selection
Procedure, shortened: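 On medium lacking adenine and uracil, psi-negative yeast expressing peptides of 20 random codons fused to Sup35N were grown 7 days at 30°C after a 24-hour induction with 100 μM copper sulfate. Illumina sequencing of input and output plasmid inserts gave the reads, and sequences under 100 input reads were excluded. The nucleation score is the DiMSum log enrichment of output over input reads, centred on the mode score of non-aggregating sequences.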

DRFMVMFMLKVGVIVWNYGD and TPMFHILLYFLNWCYCILVA are within error of each other in amyloid nucleation score: 0.262 ± 0.54 for the first, 0.165 ± 1 for the second.

First: SYFDMWIGW
Second: IVDSIFTFGTRVDGWLGDCA
The amyloid nucleation score of the first is higher: 1.2 ± 0.47 for the first, -0.259 ± 0.32 for the second.

First: LSFFMPDT
Second: TADLDIDGPVS
The amyloid nucleation score of the first is lower: -1.53 ± 0.36 for the first, 4.64 ± 0.094 for the second.

Compared with CASNQCTGP, ALVAWVVSYYLALLCSPRQS is lower in amyloid nucleation score: 3.28 ± 0.065 for the first, -0.1 ± 0.74 for the second.

PGAADRTVRYGSRRPPD and STSWGSRSVDCC are within error of each other in amyloid nucleation score: -0.003 ± 0.41 for the first, -0.609 ± 0.25 for the second.

NKEECL and SVYREWLPSSSRVWCMSLSG are within error of each other in amyloid nucleation score: 0.021 ± 0.35 for the first, -0.317 ± 0.63 for the second.

IMLLNLYKDGSGGRRSKLLQ and GKCWRVRASIFVGILFKIAG are within error of each other in amyloid nucleation score: -0.09 ± 0.33 for the first, 0.486 ± 0.8 for the second.

First: MIIMQANDP
Second: SYFSCCLFFRAFSTFFGVIP
The amyloid nucleation score of the first is lower: -0.302 ± 0.76 for the first, 3.33 ± 0.11 for the second.

Compared with YDNSYNWTATTFFGSRPDQS, MLGVSQCVVMVVAGWA is lower in amyloid nucleation score: 4.55 ± 0.048 for the first, 1.4 ± 0.16 for the second.

FSIGGVKGEGSKFQGGSQMS and HEHLLPRT are within error of each other in amyloid nucleation score: -0.12 ± 1 for the first, 0.02 ± 0.74 for the second.

Going from WWNITTEAPIFLIFCFTRQG to TGGGATLRRILRHLSVGSDR, the amyloid nucleation score falls from 4.8 ± 0.068 to -0.005 ± 0.79.

First: HYSMHVNGDTAAGTYAQAFC
Second: YICVFLDSYLGHMYRPHWRV
The amyloid nucleation score of the first is lower: -0.472 ± 0.76 for the first, 1.91 ± 0.13 for the second.

Compared with IHASSVILITCFEFNFYYFA, REHSYLSIFLWMCAFVTNVE is lower in amyloid nucleation score: 4.64 ± 0.057 for the first, -0.98 ± 1.1 for the second.

Going from LLFPM to RVSMFKDLKYNGSYSWNSHG, the amyloid nucleation score falls from 0.647 ± 0.8 to -1.22 ± 0.41.

RRAVLVSPGVVNQGISKHQG and ANLSRCVELMSRPQSVD are within error of each other in amyloid nucleation score: 0.632 ± 0.25 for the first, 1 ± 0.15 for the second.

Compared with DRYWLERWSDGNCGRSARIR, KIRTNALYLL is lower in amyloid nucleation score: 1.22 ± 0.4 for the first, -0.298 ± 0.29 for the second.

Compared with MSQGSKIRVTWARSGGTRRL, ISSSKRYVLKS is lower in amyloid nucleation score: 3.08 ± 0.15 for the first, 0.583 ± 0.39 for the second.

SFKLYLYVGAVFFRLLSLVS and LRIRYFSFDIIVLEGYIRSA are within error of each other in amyloid nucleation score: -1.08 ± 0.76 for the first, -0.205 ± 0.29 for the second.

IKRSMCICY and CLGNHIDSCVVFLTDAESSS are within error of each other in amyloid nucleation score: 0.089 ± 1.1 for the first, -0.484 ± 0.65 for the second.

Going from TILGSLHFNFVKCHSKCSYF to GAMNCRVSSKTRWCDTHMVP, the amyloid nucleation score falls from 7.238 ± 0.061 to 1.53 ± 0.52.

Going from ITMSYTLGPSCFFWSLADTY to YQIAWI, the amyloid nucleation score falls from 8.218 ± 0.065 to -0.719 ± 0.46.

Compared with NTTSARSERR, SCEVVSRKL is higher in amyloid nucleation score: -0.212 ± 0.37 for the first, 1.08 ± 0.22 for the second.

Going from DQEALGRLWYLFAHGSLVTR to CVLTRVFETTSCVSIHLF, the amyloid nucleation score falls from 0.847 ± 0.44 to -1.64 ± 0.79.

Compared with IELLYIRYK, RLDWREVHWLVRKTLL is higher in amyloid nucleation score: -2.09 ± 1.1 for the first, 0.648 ± 0.16 for the second.

YLICD and DWLYMMKIARSPVVCRSRPS are within error of each other in amyloid nucleation score: -0.578 ± 0.76 for the first, 0.38 ± 0.35 for the second.

Compared with VFSNWVNVVWS, TAAVILLIVNRDANA is lower in amyloid nucleation score: 5.172 ± 0.039 for the first, 1.94 ± 0.14 for the second.

First: QSLFFVI
Second: ARMRKFTCRDWFRDPMGQPA
The amyloid nucleation score of the first is lower: -0.395 ± 0.48 for the first, 0.854 ± 0.25 for the second.

Compared with WCFCSLLCVSGCLRPDPELP, RGVLTSSLFPSKGRWVVGHW is higher in amyloid nucleation score: 1.28 ± 0.22 for the first, 2.35 ± 0.075 for the second.

Compared with DYDEIMRLMLWSSLLLFR, HVVTRVSFESVFCLFTYF is higher in amyloid nucleation score: 0.47 ± 0.34 for the first, 3.83 ± 0.085 for the second.

Compared with RQTGRLDFRTISRVKVDVIV, ILIREPLHDIGNVNLLVRSS is lower in amyloid nucleation score: 1.92 ± 0.28 for the first, -0.359 ± 0.48 for the second.

PRPFGKNWVKKDLNCLHKLN and CCICKSRHLFDWKNDEWTSI are within error of each other in amyloid nucleation score: -0.251 ± 0.35 for the first, -0.45 ± 0.63 for the second.

Going from NFGIKWIVFLKL to AYVIRAKEC, the amyloid nucleation score rises from -0.861 ± 0.28 to 0.162 ± 0.39.

With SGIGVNSGAGRNMDLCDLKR the amyloid nucleation score was “inactive”.
With FSMYSSSVWLDW the amyloid nucleation score was “inactive”.
For ETHIITCLRYRRRMARPHRY, the amyloid nucleation score was “inactive”.
In the case of YRGINGTTGFQLWAPA, the amyloid nucleation score is reported as “inactive”.
With SDTKCLHY the amyloid nucleation score was “inactive”.
With QYDIVPNVSGNYPNGIFKDR the amyloid nucleation score was “inactive”.
In the case of IHKAGFKDKGC, the amyloid nucleation score is reported as “inactive”.
